Assay results as given in the supplement of paper PMC10567573.

B1: ZNF449 (parent)
chain: EPHKCPECGKRFLRSSDLYRHQRL
B2: HDAC6 (parent)
chain: YVHHQALLDVKNIAHQNKFGEDMP
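Further: lentivirally expressed fusions sorted by FACS into six bins by GFP to DsRed ratio, PSI derived from sequencing read proportions per bin multiplied by bin number.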

Variants of: B1
Assay: protein stability index of a GFP-peptide fusion (GPS, HEK-293T) (PSI 1-6); higher = more stable
Conditions: c terminus: a fixed tail appended
EPHKCPECGKRFLRSSDLYRSQRL gave a protein stability index of 2.
For EPHKCPECGKRFLRSSDLYRQQRL, the protein stability index was 1.91.
Work on EPHKCPECGKRFLRSSDLYRWQRL yielded a protein stability index of 1.29.
For EPHKCPECGKRFLRSSDLYRTQRL, the protein stability index was 2.34.
With EPHKCPECGKRFLRSSDLYREQRL the protein stability index was 2.15.
Variant EPHKCPECGKRFLRSSDLYRVQRL has a protein stability index of 2.11.
EPHKCPECGKRFLRSSDLYRPQRL showed a protein stability index of 2.14.
Variant EPHKCPECGKRFLRSSDLYRGQRL has a protein stability index of 1.84.
With EPHKCPECGKRFLRSSDLYRNQRL the protein stability index was 2.12.
With EPHKCPECGKRFLRSSDLYRHQWL the protein stability index was 2.94.
EPHKCPECGKRFLRSSDLYRHQDL gave a protein stability index of 4.32.
For EPHKCPECGKRFLRSSDLYRHQML, the protein stability index was 3.47.
With EPHKCPECGKRFLRSSDLYRHQNL the protein stability index was 4.4.
With EPHKCPECGKRFLRSSDLYRHQLL the protein stability index was 3.7.
In the case of EPHKCPECGKRFLRSSDLYRHQIL, the protein stability index is reported as 3.01.
EPHKCPECGKRFLRSSDLYRHQYL showed a protein stability index of 3.75.
Work on EPHKCPECGKRFLRSSDLYRHQQL yielded a protein stability index of 4.43.
EPHKCPECGKRFLRSSDLYRHQHL gave a protein stability index of 3.84.
Variant EPHKCPECGKRFLRSSDLYRHQTL has a protein stability index of 4.01.
EPHKCPECGKRFLRSSDLYRHQGL showed a protein stability index of 3.54.
In the case of EPHKCPECGKRFLRSSDLYRHQVL, the protein stability index is reported as 3.16.
Variant EPHKCPECGKRFLRSSDLYRHQKL has a protein stability index of 4.27.
With EPHKCPECGKRFLRSSDLYRHQAL the protein stability index was 3.74.
For EPHKCPECGKRFLRSSDLYRHQEL, the protein stability index was 4.47.
Variant EPHKCPECGKRFLRSSDLYRHQFL has a protein stability index of 3.43.
EPHKCPECGKRFLRSSDLYRHQSL showed a protein stability index of 4.11.
With EPHKCPECGKRFLRSSDLYRHQCL the protein stability index was 5.02.
Variant EPHKCPECGKRFLRSSDLYRHQPL has a protein stability index of 2.98.

Variants of: B2
Assay: as above
Conditions: c terminus: a fixed tail appended
In the case of YFHHQALLDVKNIAHQNKFGEDMP, the protein stability index is reported as 2.44.
In the case of YSHHQALLDVKNIAHQNKFGEDMP, the protein stability index is reported as 3.56.
Work on YPHHQALLDVKNIAHQNKFGEDMP yielded a protein stability index of 3.
YNHHQALLDVKNIAHQNKFGEDMP showed a protein stability index of 4.12.
Variant YAHHQALLDVKNIAHQNKFGEDMP has a protein stability index of 3.16.
For YHHHQALLDVKNIAHQNKFGEDMP, the protein stability index was 1.65.
For YYHHQALLDVKNIAHQNKFGEDMP, the protein stability index was 2.98.
YQHHQALLDVKNIAHQNKFGEDMP showed a protein stability index of 2.77.
Work on YGHHQALLDVKNIAHQNKFGEDMP yielded a protein stability index of 3.43.
YEHHQALLDVKNIAHQNKFGEDMP showed a protein stability index of 4.55.
Work on YIHHQALLDVKNIAHQNKFGEDMP yielded a protein stability index of 1.81.
Variant YCHHQALLDVKNIAHQNKFGEDMP has a protein stability index of 2.02.
Work on YRHHQALLDVKNIAHQNKFGEDMP yielded a protein stability index of 3.69.
YLHHQALLDVKNIAHQNKFGEDMP gave a protein stability index of 2.56.
YWHHQALLDVKNIAHQNKFGEDMP showed a protein stability index of 2.21.
In the case of YTHHQALLDVKNIAHQNKFGEDMP, the protein stability index is reported as 2.95.
With YMHHQALLDVKNIAHQNKFGEDMP the protein stability index was 3.17.
Variant YDHHQALLDVKNIAHQNKFGEDMP has a protein stability index of 4.33.
Variant YKHHQALLDVKNIAHQNKFGEDMP has a protein stability index of 4.15.
Variant YVKHQALLDVKNIAHQNKFGEDMP has a protein stability index of 2.18.
Work on YVCHQALLDVKNIAHQNKFGEDMP yielded a protein stability index of 1.89.
Variant YVEHQALLDVKNIAHQNKFGEDMP has a protein stability index of 2.81.
Variant YVWHQALLDVKNIAHQNKFGEDMP has a protein stability index of 2.41.
Variant YVRHQALLDVKNIAHQNKFGEDMP has a protein stability index of 1.39.
Work on YVSHQALLDVKNIAHQNKFGEDMP yielded a protein stability index of 2.
YVFHQALLDVKNIAHQNKFGEDMP gave a protein stability index of 1.48.
With YVIHQALLDVKNIAHQNKFGEDMP the protein stability index was 1.66.
In the case of YVGHQALLDVKNIAHQNKFGEDMP, the protein stability index is reported as 2.03.
YVLHQALLDVKNIAHQNKFGEDMP showed a protein stability index of 2.
In the case of YVPHQALLDVKNIAHQNKFGEDMP, the protein stability index is reported as 1.65.
For YVNHQALLDVKNIAHQNKFGEDMP, the protein stability index was 2.62.
With YVVHQALLDVKNIAHQNKFGEDMP the protein stability index was 2.46.
Variant YVTHQALLDVKNIAHQNKFGEDMP has a protein stability index of 1.82.
YVQHQALLDVKNIAHQNKFGEDMP gave a protein stability index of 1.78.
YVYHQALLDVKNIAHQNKFGEDMP showed a protein stability index of 1.69.
In the case of YVMHQALLDVKNIAHQNKFGEDMP, the protein stability index is reported as 1.8.
With YVDHQALLDVKNIAHQNKFGEDMP the protein stability index was 2.14.
For YVAHQALLDVKNIAHQNKFGEDMP, the protein stability index was 1.55.
KVHHQALLDVKNIAHQNKFGEDMP showed a protein stability index of 4.06.
For VVHHQALLDVKNIAHQNKFGEDMP, the protein stability index was 3.14.
In the case of CVHHQALLDVKNIAHQNKFGEDMP, the protein stability index is reported as 3.29.
GVHHQALLDVKNIAHQNKFGEDMP showed a protein stability index of 4.19.
With HVHHQALLDVKNIAHQNKFGEDMP the protein stability index was 3.66.
With SVHHQALLDVKNIAHQNKFGEDMP the protein stability index was 4.29.
In the case of MVHHQALLDVKNIAHQNKFGEDMP, the protein stability index is reported as 3.49.
Work on RVHHQALLDVKNIAHQNKFGEDMP yielded a protein stability index of 3.59.
For QVHHQALLDVKNIAHQNKFGEDMP, the protein stability index was 4.14.
With AVHHQALLDVKNIAHQNKFGEDMP the protein stability index was 4.15.
TVHHQALLDVKNIAHQNKFGEDMP showed a protein stability index of 3.75.
Variant FVHHQALLDVKNIAHQNKFGEDMP has a protein stability index of 1.94.
NVHHQALLDVKNIAHQNKFGEDMP showed a protein stability index of 4.39.
For DVHHQALLDVKNIAHQNKFGEDMP, the protein stability index was 4.81.
Work on EVHHQALLDVKNIAHQNKFGEDMP yielded a protein stability index of 4.05.
Work on WVHHQALLDVKNIAHQNKFGEDMP yielded a protein stability index of 2.98.
Variant LVHHQALLDVKNIAHQNKFGEDMP has a protein stability index of 3.3.
PVHHQALLDVKNIAHQNKFGEDMP showed a protein stability index of 4.1.
Work on IVHHQALLDVKNIAHQNKFGEDMP yielded a protein stability index of 3.21.
For YVHGQALLDVKNIAHQNKFGEDMP, the protein stability index was 1.99.
With YVHDQALLDVKNIAHQNKFGEDMP the protein stability index was 2.64.
In the case of YVHMQALLDVKNIAHQNKFGEDMP, the protein stability index is reported as 1.83.
Variant YVHCQALLDVKNIAHQNKFGEDMP has a protein stability index of 1.7.
For YVHIQALLDVKNIAHQNKFGEDMP, the protein stability index was 1.97.
With YVHLQALLDVKNIAHQNKFGEDMP the protein stability index was 2.2.
For YVHKQALLDVKNIAHQNKFGEDMP, the protein stability index was 1.78.
With YVHFQALLDVKNIAHQNKFGEDMP the protein stability index was 2.98.
With YVHEQALLDVKNIAHQNKFGEDMP the protein stability index was 2.82.
